{
  "source": "paper PMC3046063",
  "about": "(Molecular Biology of the Cell, 2011)",
  "key": {"[1]": {"biological_target": "T1, His-Gαi3 (UniProt P08753 1-354)", "T1 sequence (P08753 whole entry)": "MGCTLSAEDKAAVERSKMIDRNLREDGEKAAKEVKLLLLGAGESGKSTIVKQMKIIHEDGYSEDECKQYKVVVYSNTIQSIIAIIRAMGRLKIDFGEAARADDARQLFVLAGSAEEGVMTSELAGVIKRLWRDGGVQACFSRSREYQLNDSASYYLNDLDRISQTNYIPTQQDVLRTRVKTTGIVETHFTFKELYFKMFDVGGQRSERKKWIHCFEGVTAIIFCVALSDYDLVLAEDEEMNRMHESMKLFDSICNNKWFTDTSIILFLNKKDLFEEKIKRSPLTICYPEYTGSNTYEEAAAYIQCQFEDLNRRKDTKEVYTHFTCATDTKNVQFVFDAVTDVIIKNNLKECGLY", "assay": "cell-based or functional assay"}, "[2]": {"biological_target": "T1, His-Gαi3"}, "[3]": {"biological_target": "T1, His-Gαi3", "assay": "SEC"}},
  "data": [
    {"binder": "His-GIV-CTs (aa 1660–1870) (domain or fragment, UniProt Q3V6T2-3 1660-1870, looked up) SETLESRHHKIKTGSPGSEVVTLQQFLEESNKLTSVQIKSSSQENLLDEVMKSLSVSSDFLGKDKPVSCGLARSVSGKTPGDFYDRRTTKPEFLRPGPRKTEDTYFISSAGKPTPGTQGKIKLVKESSLSRQSKDSNPYATLPRASSVISTAEGTTRRTSIHDFLTKDSRLPISVDSPPAAADSNTTAASNVDKVQESRNSKSRSREQQSS", "values": [
      {"measurement": "steady-state GTPase activity of His-Gαi3 (50 nM) alone with 0-2 μM His-GIV-CTs", "setting": "[1]", "value": "~3", "unit": "fold"},
      {"measurement": "Kd", "setting": "[2]", "value": "~300", "unit": "nM"},
      {"measurement": "stoichiometry N", "setting": "[3]", "value": "1 His-Gαi3:His-GIV-CTs"}
    ]}
  ]
}
